Patent publication US20150044169, “METHODS OF […] A […] FAMILY VIRAL INFECTION, COMPOSITIONS FOR […] A […] FAMILY VIRAL INFECTION, AND […] ASSAYS FOR […] COMPOSITIONS FOR […] A […] FAMILY VIRAL INFECTION” (The Board of Trustees of the Leland Stanford Junior …, published 2015)

Biological target: Gus (beta-glucuronidase) control (UniProt P05804 P05804:1-603)
Test: MITOMI Gus-his negative control
Conditions: tags: C-terminal 6xHis (Roche Gus-his vector); label: Cy3
Source text: For each experiment, an image was taken after MITOMI and the final PBS wash. This was used to determine the concentration of surface bound protein (FITC channel) as well as surface bound target RNA (Cy3 channel). […] Data from multiple data points were averaged, and their standard deviations calculated. Results were then normalized to 1. Between 10-20 replicates were included for each probe tested. A control protein, Gus-his (Roche) was included in each experiment and subjected to the same analysis. When present, detected signal with Gus-his was used for background subtraction.
A microarray of Cy3-labeled target RNA sequences was used to program a microfluidic device, and binding of bodiby-labeled proteins expressed on the device to the RNA sequences was assayed. Results represent the ratio of bound RNA (median Cy3 signal) to expressed protein (median bodipy signal). Normalized mean values for 10-20 replicates measured in two independent experiments are shown. Error bars represent standard deviation. The grey bars represent binding of HuR-his and the clear bars that of Gus-his, used as a negative control.

Gus (beta-glucuronidase) control, sequence (P05804 whole entry, one chain of several): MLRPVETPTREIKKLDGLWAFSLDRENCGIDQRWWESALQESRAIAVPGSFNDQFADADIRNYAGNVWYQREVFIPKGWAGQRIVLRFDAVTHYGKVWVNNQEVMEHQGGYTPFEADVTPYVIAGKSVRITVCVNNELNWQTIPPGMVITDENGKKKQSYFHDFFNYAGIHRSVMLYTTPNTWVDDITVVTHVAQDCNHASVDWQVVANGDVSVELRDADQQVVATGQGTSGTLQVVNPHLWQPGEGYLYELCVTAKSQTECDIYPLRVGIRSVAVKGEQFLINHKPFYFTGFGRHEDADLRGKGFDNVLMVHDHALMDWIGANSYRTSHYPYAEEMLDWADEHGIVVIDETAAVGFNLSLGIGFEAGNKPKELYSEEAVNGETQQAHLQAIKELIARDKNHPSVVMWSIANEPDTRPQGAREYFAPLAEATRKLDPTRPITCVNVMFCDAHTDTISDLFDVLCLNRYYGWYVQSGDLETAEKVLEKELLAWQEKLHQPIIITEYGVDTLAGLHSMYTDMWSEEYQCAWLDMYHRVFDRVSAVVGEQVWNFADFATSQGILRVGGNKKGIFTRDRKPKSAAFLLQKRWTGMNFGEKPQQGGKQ

AUUUAUUUAUUUAUUUA (ssRNA) [4A]: no binding.
